Results published in the supplement of paper PMC9112550, “Optimization of the antimicrobial peptide Bac7 by deep mutational scanning” (BMC Biology, 2022).
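Note: peptides expressed intracellularly from a pBAD plasmid library in pooled LB shake-flask culture, induced with 0.3% L-arabinose, DNA abundance read by NGS, three biological replicates, DESeq2 with apeglm shrinkage.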

What follows are sequences tested on Escherichia coli TOP10 (assay: shrunken log2 fold change of peptide-encoding DNA abundance (4.5 h post-induction vs induction); higher = less antimicrobial activity (less host growth inhibition)). Settings: time post-induction: 4.5 h; library: site-saturation at positions 5, 18, 19, 20.
With RRIRSRPPRLPRPRPRPNSWPRP the “shrunken log2 fold change” value was 0.0508. With RRIRKRPPRLPRPRPRPYHEPRP the “shrunken log2 fold change” value was -0.112. In the case of RRIRIRPPRLPRPRPRPSRLPRP, the “shrunken log2 fold change” value is reported as -0.0995. For RRIRHRPPRLPRPRPRPDYEPRP, the “shrunken log2 fold change” value was 0.00408. For RRIRCRPPRLPRPRPRPAKMPRP, the “shrunken log2 fold change” value was 0.104. With RRIRVRPPRLPRPRPRPHTTPRP the “shrunken log2 fold change” value was -0.26. In the case of RRIRLRPPRLPRPRPRPHHYPRP, the “shrunken log2 fold change” value is reported as -0.628. In the case of RRIRCRPPRLPRPRPRPRLNPRP, the “shrunken log2 fold change” value is reported as 0.00503. With RRIRFRPPRLPRPRPRPNRAPRP the “shrunken log2 fold change” value was 0.091. With RRIRKRPPRLPRPRPRPCEFPRP the “shrunken log2 fold change” value was 0.252. In the case of RRIRMRPPRLPRPRPRPHTIPRP, the “shrunken log2 fold change” value is reported as 0.0593. RRIRTRPPRLPRPRPRPHDAPRP was tested, and the “shrunken log2 fold change” value was -0.0483. For RRIRQRPPRLPRPRPRPWEPPRP, the “shrunken log2 fold change” value was 0.106. For RRIRNRPPRLPRPRPRPRGNPRP, the “shrunken log2 fold change” value was 0.26. RRIRTRPPRLPRPRPRPWAHPRP was tested, and the “shrunken log2 fold change” value was -0.0917. In the case of RRIRVRPPRLPRPRPRPTILPRP, the “shrunken log2 fold change” value is reported as -0.308. With RRIRFRPPRLPRPRPRPYHMPRP the “shrunken log2 fold change” value was -0.128. In the case of RRIRTRPPRLPRPRPRPLMHPRP, the “shrunken log2 fold change” value is reported as -0.454. In the case of RRIRNRPPRLPRPRPRPSWRPRP, the “shrunken log2 fold change” value is reported as 0.0128. With RRIRFRPPRLPRPRPRPPDVPRP the “shrunken log2 fold change” value was 0.0274. For RRIRNRPPRLPRPRPRPTMNPRP, the “shrunken log2 fold change” value was -0.134. RRIRIRPPRLPRPRPRPCCDPRP was tested, and the “shrunken log2 fold change” value was -0.67. RRIRARPPRLPRPRPRPCVPPRP was tested, and the “shrunken log2 fold change” value was -0.0952. With RRIRCRPPRLPRPRPRPICAPRP the “shrunken log2 fold change” value was 0.107. For RRIRARPPRLPRPRPRPKATPRP, the “shrunken log2 fold change” value was 0.347. In the case of RRIRKRPPRLPRPRPRPSTYPRP, the “shrunken log2 fold change” value is reported as -0.0529. With RRIRLRPPRLPRPRPRPHYSPRP the “shrunken log2 fold change” value was -0.246. With RRIRHRPPRLPRPRPRPLAGPRP the “shrunken log2 fold change” value was 0.312. RRIRSRPPRLPRPRPRPLGWPRP was tested, and the “shrunken log2 fold change” value was 0.76. For RRIRCRPPRLPRPRPRPYPKPRP, the “shrunken log2 fold change” value was 0.0488. In the case of RRIRFRPPRLPRPRPRPENVPRP, the “shrunken log2 fold change” value is reported as -0.0124. RRIRGRPPRLPRPRPRPFSVPRP was tested, and the “shrunken log2 fold change” value was 0.429. For RRIRERPPRLPRPRPRPVWLPRP, the “shrunken log2 fold change” value was -0.0259. In the case of RRIRIRPPRLPRPRPRPVTKPRP, the “shrunken log2 fold change” value is reported as -0.359. RRIRNRPPRLPRPRPRPGPKPRP was tested, and the “shrunken log2 fold change” value was 0.284. For RRIRMRPPRLPRPRPRPLEAPRP, the “shrunken log2 fold change” value was 2.46. For RRIRERPPRLPRPRPRPNTYPRP, the “shrunken log2 fold change” value was -0.667. With RRIRPRPPRLPRPRPRPCQRPRP the “shrunken log2 fold change” value was -0.144. In the case of RRIRLRPPRLPRPRPRPHCTPRP, the “shrunken log2 fold change” value is reported as -0.533. With RRIRFRPPRLPRPRPRPFPVPRP the “shrunken log2 fold change” value was -0.0374. For RRIRGRPPRLPRPRPRPSPKPRP, the “shrunken log2 fold change” value was 0.619. RRIRNRPPRLPRPRPRPEHIPRP was tested, and the “shrunken log2 fold change” value was -0.313. For RRIRERPPRLPRPRPRPASDPRP, the “shrunken log2 fold change” value was -0.105. RRIRHRPPRLPRPRPRPIERPRP was tested, and the “shrunken log2 fold change” value was 0.00211. In the case of RRIRWRPPRLPRPRPRPVASPRP, the “shrunken log2 fold change” value is reported as 0.27. In the case of RRIRPRPPRLPRPRPRPMRHPRP, the “shrunken log2 fold change” value is reported as -0.0129. RRIRIRPPRLPRPRPRPVCDPRP was tested, and the “shrunken log2 fold change” value was -0.372. With RRIRIRPPRLPRPRPRPPLPPRP the “shrunken log2 fold change” value was 0.796. In the case of RRIRCRPPRLPRPRPRPYSCPRP, the “shrunken log2 fold change” value is reported as -0.833. For RRIRQRPPRLPRPRPRPHTEPRP, the “shrunken log2 fold change” value was 0.0633. RRIRKRPPRLPRPRPRPYFMPRP was tested, and the “shrunken log2 fold change” value was -0.501. For RRIRTRPPRLPRPRPRPKCDPRP, the “shrunken log2 fold change” value was 0.118. For RRIRGRPPRLPRPRPRPCPNPRP, the “shrunken log2 fold change” value was 0.0353. For RRIRLRPPRLPRPRPRPDTPPRP, the “shrunken log2 fold change” value was 0.0881. With RRIRYRPPRLPRPRPRPPKPPRP the “shrunken log2 fold change” value was 0.144. For RRIRERPPRLPRPRPRPMLKPRP, the “shrunken log2 fold change” value was -0.292. RRIRDRPPRLPRPRPRPEPVPRP was tested, and the “shrunken log2 fold change” value was 0.576. RRIRQRPPRLPRPRPRPTCSPRP was tested, and the “shrunken log2 fold change” value was -0.353. In the case of RRIRVRPPRLPRPRPRPKDLPRP, the “shrunken log2 fold change” value is reported as 0.0892. For RRIRRRPPRLPRPRPRPHLIPRP, the “shrunken log2 fold change” value was -0.293. In the case of RRIRSRPPRLPRPRPRPPTMPRP, the “shrunken log2 fold change” value is reported as -0.00342. For RRIRYRPPRLPRPRPRPADYPRP, the “shrunken log2 fold change” value was 3.66. RRIRHRPPRLPRPRPRPCYFPRP was tested, and the “shrunken log2 fold change” value was -0.117. With RRIRMRPPRLPRPRPRPDWHPRP the “shrunken log2 fold change” value was -0.136. In the case of RRIRYRPPRLPRPRPRPKSNPRP, the “shrunken log2 fold change” value is reported as -0.206. For RRIRYRPPRLPRPRPRPMNDPRP, the “shrunken log2 fold change” value was -0.188. For RRIRFRPPRLPRPRPRPQKHPRP, the “shrunken log2 fold change” value was -0.327. RRIRNRPPRLPRPRPRPNCWPRP was tested, and the “shrunken log2 fold change” value was 0.241. In the case of RRIRVRPPRLPRPRPRPAMLPRP, the “shrunken log2 fold change” value is reported as 0.0111. With RRIRPRPPRLPRPRPRPFRQPRP the “shrunken log2 fold change” value was -0.00634. In the case of RRIRIRPPRLPRPRPRPPWSPRP, the “shrunken log2 fold change” value is reported as 0.219. With RRIRQRPPRLPRPRPRPIMRPRP the “shrunken log2 fold change” value was 0.0932. In the case of RRIRWRPPRLPRPRPRPYEYPRP, the “shrunken log2 fold change” value is reported as -0.254. RRIRNRPPRLPRPRPRPWPVPRP was tested, and the “shrunken log2 fold change” value was -0.153. For RRIRFRPPRLPRPRPRPIHQPRP, the “shrunken log2 fold change” value was -0.237.
